Test results from US20240207432A1 (BIOSION, published 2024).
Like-named read-outs stand apart in the source and are kept apart here.

T1: full length human TROP2 on 293F-TROP2 cells (human, UniProt P09758 27-323)
T1 construct: also called 293F-TROP2 cells (clone ID #3A8); cell surface TROP2
T1 sequence: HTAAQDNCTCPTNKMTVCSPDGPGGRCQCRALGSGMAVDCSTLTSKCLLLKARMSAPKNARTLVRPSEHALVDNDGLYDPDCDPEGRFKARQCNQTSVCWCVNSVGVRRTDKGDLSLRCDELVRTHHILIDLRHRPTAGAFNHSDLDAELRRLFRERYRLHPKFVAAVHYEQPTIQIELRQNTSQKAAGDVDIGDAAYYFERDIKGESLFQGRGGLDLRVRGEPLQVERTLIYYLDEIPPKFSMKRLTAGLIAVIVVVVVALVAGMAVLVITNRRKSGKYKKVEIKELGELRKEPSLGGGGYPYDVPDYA

T2: cynomolgus TROP2-his protein (cynomolgus monkey, UniProt P09758 27-272 (human entry), limits assumed)
T2 construct: no cleavage site is stated; also called Cynomolgus monkey TROP2-his protein; monkey TROP2
T2 chain: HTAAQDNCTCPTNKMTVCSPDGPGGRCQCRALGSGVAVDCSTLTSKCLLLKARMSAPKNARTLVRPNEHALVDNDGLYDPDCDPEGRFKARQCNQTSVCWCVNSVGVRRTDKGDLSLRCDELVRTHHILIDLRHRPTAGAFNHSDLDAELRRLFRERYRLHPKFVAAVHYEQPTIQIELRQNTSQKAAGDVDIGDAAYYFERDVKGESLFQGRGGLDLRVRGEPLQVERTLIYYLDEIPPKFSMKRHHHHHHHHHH

T3: human TROP2-his protein (human, UniProt P09758 27-274)
T3 construct: Biotin-labelled in the ELISAs, unlabelled analyte in Biacore; also called biotin-labeled human TROP2-his protein; biotin human Trop2-his
T3 sequence: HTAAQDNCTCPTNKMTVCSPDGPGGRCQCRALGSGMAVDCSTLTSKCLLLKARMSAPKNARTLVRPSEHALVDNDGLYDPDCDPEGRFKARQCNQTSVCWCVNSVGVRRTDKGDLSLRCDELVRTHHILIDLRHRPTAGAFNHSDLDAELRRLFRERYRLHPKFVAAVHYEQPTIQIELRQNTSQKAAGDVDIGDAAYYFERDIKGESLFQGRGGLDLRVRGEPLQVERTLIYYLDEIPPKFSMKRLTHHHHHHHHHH

B1: chimeric A1E4F7D4 (antibody, human IgG1, kappa, V domains shown)
VH: QVQLQQSGAELAKPGTSVKMSCEASGYSFTTHWIHWMKQRPGQGLEWIGTIFPSNAYAVYNQKFRDRAIMTADRSSTTAYIQLTGLTSEDSAVYYCARASYFDYWGQGTTLTVSS
VL: DILLTQSPATLSVSPGERVTFSCRASQNIGTSIHWFQQRTTGSPRLLIKYASESISGIPSRFSGSGSGTDFTLHINSVESEDIAHYYCQHSHSWPFTFGSGTKLEIQR
notes: also called chimeric antibody A1E4F7D4
B2: chimeric C1B3B12D2 (antibody, human IgG1, kappa, V domains shown)
VH: QVQLQQSGPELVRPGTSVKMSCKAAGYTFTKFWIGWVKQRPGHGLEWIGNIYPGGAYINYNENFKGKATLTADTFSSTAYMQLNSLTSADSAIYYCAREGSSGYWGQGTTLTVSS
VL: DIVMTQSPSSLTVTAGEKVTLSCKCSQSLLNSGTQENYLTWYQQKPGQPPKMLIYWASIREPGVPDRFTGSGSGTDFTLTINNVQAEDLAVYYCQHDYSYPFTFGSGTKLEIKR

Key:
[1] = target: T1, full length human TROP2 on 293F-TROP2 …; test: FACS on 293F-TROP2 cells, MFI
Procedure: The 293F-TROP2 cells were harvested from cell culture flasks, washed twice and re-suspended in phosphate buffered saline (PBS) containing 2% v/v Fetal Bovine Serum (FACS buffer). […] Following an incubation of 40 minutes at 4° C. in dark, cells were washed twice and re-suspended in FACS buffer. Fluorescence was measured using a Becton Dickinson FACS Canto II-HTS equipment, and the MFI (mean fluorescence intensity) was plotted against antibody concentration. Data was analyzed using Graphpad Prism software and EC₅₀ values were reported.

[2] = target: T2, cynomolgus TROP2-his protein; test: SPR Biacore, antibody captured on anti-human IgG CM5 chip, TROP2-his analyte
Procedure: (§1) Un-reacted moieties on the chip (biosensor) surface were blocked with ethanolamine. […] The antigen-antibody association kinetics was followed for 2 minutes and the dissociation kinetics was followed for 10 minutes. The association and dissociation curves were fit to a 1:1 Langmuir binding model using BIAcore evaluation software.

human TROP2-his protein [3] = target: T3, human TROP2-his protein; test: as above
Procedure: as §1

human TROP2-his protein [4] = target: T3, human TROP2-his protein; test: capture ELISA, antibody captured on anti-human IgG Fc coat, biotin human TROP2-his in solution, OD(450-630)
Procedure: (§2) Plates were washed once with wash buffer (PBS+0.05% v/v Tween-20, PBST) and then blocked with 200 μl/well blocking buffer (5% w/v non-fatty milk in PBST) for 2 hours at 37° C. […] Plates containing captured anti-TROP2 antibodies were incubated with biotin-labeled human TROP2-his protein (prepared in house, SEQ ID NO: 67, 56.7 ng/mL in 2.5% w/v non-fatty milk in PBST, 100 μl/well) for 40 minutes at 37° C., washed 4 times, and incubated with streptavidin conjugated HRP (1:10000 dilution in PBST, Jackson Immuno Research, Cat #016-030-084, 100 μl/well) for 40 minutes at 37° C. After a final wash, plates were incubated with 100 μl/well ELISA substrate TMB (Innoreagents, Cat #TMB-S-002) at room temperature. The reaction was stopped in 3-10 minutes at room temperature with 50 μl/well 1M H₂SO₄, and the absorbance of each well was read on a microplate reader using dual wavelength mode with 450 nm for TMB and 630 nm as the reference wavelength. The OD (450-630) values were plotted against antibody concentration. Data was analyzed using Graphpad Prism software and EC₅₀ values were reported.
For the Capture ELISA, AffiniPure F(ab′)₂ Fragment Goat Anti-Human IgG, Fcγ fragment specific (Jackson Immunoresearch, Cat #109-006-008) was used instead of AffiniPure Goat Anti-Mouse IgG, Fcγ fragment specific, 100 μl/well.

[5] = target: T2, cynomolgus TROP2-his protein; test: SPR Biacore, antibody captured on anti-human IgG CM5 chip, TROP2-his analyte
Procedure: as §1

human TROP2-his protein [6] = target: T3, human TROP2-his protein; test: as above; remark: listed apart in the source
Procedure: as §1

[7] = target: T2, cynomolgus TROP2-his protein; test: indirect ELISA, cynomolgus TROP2-his coated, OD(450-630)
[8] = target: T1, full length human TROP2 on 293F-TROP2 …; test: FACS on 293F-TROP2 cells, MFI; remark: listed apart in the source
human TROP2-his protein [9] = target: T3, human TROP2-his protein; test: competitive ELISA: BM1 coated, antibody premixed with biotin human TROP2-his; blocked: binding of TROP2-his to coated BM1; partial only: OD falls from about 1.9 to a plateau of about 1.3
[10] = target: T2, cynomolgus TROP2-his protein; test: indirect ELISA, cynomolgus TROP2-his coated, OD(450-630)
human TROP2-his protein [11] = target: T3, human TROP2-his protein; test: capture ELISA, antibody captured on anti-human IgG Fc coat, biotin human TROP2-his in solution, OD(450-630); remark: listed apart in the source
Procedure: as §2
For the capture ELISA, AffiniPure Goat Anti-Human IgG, Fcγ fragment specific (Jackson Immuno Research, Cat #109-005-098) was used instead of AffiniPure Goat Anti-Mouse IgG, Fcγ fragment specific, 100 μl/well.

Row | Binder | EC50 [1] [pM] | Kd [2] [pM] | koff [2] [s⁻¹] | kon [2] [M⁻¹ s⁻¹] | Kd (human TROP2-his protein [3]) [pM] | koff (human TROP2-his protein [3]) [s⁻¹] | kon (human TROP2-his protein [3]) [M⁻¹ s⁻¹] | EC50 (human TROP2-his protein [4]) [pM] | Kd [5] [pM] | koff [5] [s⁻¹] | kon [5] [M⁻¹ s⁻¹] | Kd (human TROP2-his protein [6]) [pM] | koff (human TROP2-his protein [6]) [s⁻¹] | kon (human TROP2-his protein [6]) [M⁻¹ s⁻¹] | EC50 [7] [pM] | EC50 [8] [pM] | IC50 (human TROP2-his protein [9]) [pM] | EC50 [10] [pM] | EC50 (human TROP2-his protein [11]) [pM]
1 | B1 | 575 | 134 | 0.000163 | 1.22e+06 | 185 | 0.000194 | 1.05e+06 | 73.2 | 247 | 0.000171 | 692000 | 32.6 | 3.13e-05 | 961000 | 967 | 360 | 447 | 237 | 97.9
2 | B2 | – | – | – | – | – | – | – | – | – | – | – | 125 | 9.54e-05 | 763000 | – | 810 | – | 260 | 111
